What was measured:
[1] = system: MS2 coat protein; test: apparent KD of MS2 coat protein, switch ON state; designed switch direction (-1 OFF switch, 1 ON switch): 1; higher = weaker reporter binding; conditions: FMN input: 0 or 200 uM; Eterna round: R93 (includes R88 designs)
How it was run: (§1)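 Designed RNA switches were made by on-chip transcription from Illumina sequencing clusters and then titrated with SNAP-549-labelled MS2 coat protein. Twofold steps ran from 0.7 or 1.5 nM to 3 µM, each lasting 0.8–1.5 h early and 10–20 min late, in 100 mM Tris-HCl pH 7.5, 80 mM KCl, 4 mM MgCl2, without or with constant ligand. Apparent KD is the per-design median of normalised cluster binding-curve fits.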

[2] = system: MS2 coat protein; test: apparent KD of MS2 coat protein, switch OFF state (with FMN for OFF switches, without FMN for ON switches); designed switch direction (-1 OFF switch, 1 ON switch): 1; higher = weaker reporter binding; conditions: FMN input: 0 or 200 uM; Eterna round: R93 (includes R88 designs)
How it was run: as §1

Sequence	apparent KD of MS2 coat protein [1] [nM]	apparent KD of MS2 coat protein [2] [nM]
AUAUGAGCUAUGGAGGAUAUCCAUAACAAGACAUGAGGAUCACCCAUGUAAGAAAGAAAAGAAUGGGAGAAGGCCAUAGCUCAAU [SS 2 M46]	37.9	63.7
AUAUGAGCUAUUGAGGAUAUCCAUAACAAGACAUGAGGAUCACCCAUGUAAUCAAAACAAUAAUGGGAGAAGGCAAUAGCUCAAU [SS 2 M48]	36.7	44.1
AUUACAUCUAGUUAGGAUAUCAGAUGUAAGACAUGAGGAUCACCCAUGUCCUAAGAAUAGGUAACUGAGAAGGAACAGGGAGUAU [JR_SS002_Sub418]	23.4	26.8
CAUAGACAUGAGGAUCACCCAUGUAGAAUUAUGGGAGGAUAUACAAAGACGAGAGUCAGAGUAGAAGGCCUAGGAU [salish99-ss1-162]	24.1	35.6
CAUCAUGCGCCUAAGGAUAUGUCCCACAAGACAUGAGGAUCACCCAUGUAGCCAAUUAAUACGGUGCAGAAGGUGGAGCGCAUGC [Qusotior]	315	1080
CAUCAUGCGCCUAAGGAUAUGUCUCACAAGACAUGAGGAUCACCCAUGUAGAAUAAAUAAAUGAUGCAGAAGGUGGAGUGCAUGA [Inares]	50.6	785
CAUCAUGCGCCUAAGGAUAUGUCUCACAAGACAUGAGGAUCACCCAUGUAGCCAAAAUAAACGAUGCAGAAGGUGGAGCACAUGC [Atrexe]	271	602
CAUCAUGCGUCUAAGGAUAUGUCUCACAAGACAUGAGGAUCACCCAUGUAGAAUAAAUAAAUGAUGCAGAAGGUGGAGCGCAUGC [Erzausis]	53.2	283
CGAAAGGAGAGAGAGGAUAUCCAAAGGAAAACAUGAGGAUCACCCAUGUAGAAGGUAGGAGAUUGGGAGAAGGCUCAAGAGAGGC [salish99-ss2-150]	18.5	46.7
CGAAAGGAGAGAGAGGAUAUCCAAAGGAAAACAUGAGGAUCACCCAUGUAGAAGGUAGGAGAUUGGGAGAAGGCUCAAGCAAAAG [salish99-ss2-155]	29	26.4
CGAUCACAUGAGGAUCACCCAUGUAUCGAUAAACGAGGAUAUGGGAGCGGGAUCUGUGGACCAGAAGGCGUACGGA [Celeus]	23.4	38.7
CGCCAAUUGGCACAGGAUAUGAGCAUGCUCACAUGAGGAUCACCCAUGUGAUUACCAACGCAAAAUCAGAAGGGUGCCCUCGUCA [Beanza]	69	92.6
CGGAGACAUGAGGAUCACCCAUGUGAGAAGAGGCGAGGAUAUCGAAAGAAAGAAGAGAAACGAGAAGGCGCGAGUG [salish99-SS1-074]	21.9	32.9
CUAGUUGCAUACUAGGAUAUACACUGGGUGACAUGAGGAUCACCCAUGUAAAAGCACAUUCGGUAGUAGAAGGAGUGUGCAGGUC [Ceedesbi]	92.6	68.8
CUUAGGAAGAGAGAGGAUAUCCAAAGGAAAACAUGAGGAUCACCCAUGUAAAAGGUAGGAAAUUGGGAGAAGGCUCAAGAGAGAG [salish99-ss2-080]	26	31.8
GAAAAACAUGAGGAUCACCCAUGUAAAAAUAUGGGAGGAUAUUCAAACACGAAAGUCAAAGAAGAAGGCCUAAAAG [Garnet 2]	30.4	207
GAAAAACAUGAGGAUCACCCAUGUAGAAAUAUGGAAGGAUAUACAAAGACGAAACUGAAAGUAGAAGGUCUAAAAG [Garnet 95]	23.2	22.1

Sequence	apparent KD of MS2 coat protein [1] [nM]	apparent KD of MS2 coat protein [2] [nM]
GAAAAACAUGAGGAUCACCCAUGUAGAAAUAUGGGAGGAUAUACAAAGACGAAAGUCAAAGUAGAAGGCCUCAAAG [JL S1 M-MoE mod 2 In the Red]	84.9	78.2
GAAAAACAUGAGGAUCACCCAUGUAGAAAUAUGGGAGGAUAUACAAAGUCGAAAGUCAAAGUAGAAGGCCUAAAAG [Garnet 26]	40.7	170
GAAAAACAUGAGGAUCACCCAUGUAGAAAUAUGGGAGGAUAUACGAAGACGAAAGUCGAGGUAGAAGGCCUAAAAG [Garnet 54]	34.7	98
GAAAAACAUGAGGAUCACCCAUGUAGAAAUAUGGGAGGAUAUACUAAGACGAAAGUCGAUGUAGAAGGCCUAAAAG [Same State 1.4g (Mat - Mod of Eli - )]	21.6	42.8
GAAAAACAUGAGGAUCACCCAUGUAGAGAUAUGGGAGGAUAUACGAAGACGAAAGACGAAGUAGAAGGCCUAAAAG [Garnet 58]	35.1	180
GAAAAACAUGAGGAUCACCCAUGUGAGAAUAUGGGAGGAUAUACAAGGACGAGAGUCAAGGUAGAAGGCCUAAAAG [Mat - Same State 1 - Eli mod - 29]	41.7	247
GAAAAACAUGAGGAUCACCCAUGUGAUAACAUGGGAGGAUAUACGAGGACGAUAGUCAAGGUAGAAGGCCUAAAAG [Garnet 60]	132	24.6
GAAAAACAUGAGGAUCACCCAUGUGUAAAUAUGGGAGGAUAUACGAAGACGUAAGUCAAAGUAGAAGGCCUAAAAG [Garnet 92]	24.7	119
GACCGACAUGAGGAUCACCCAUGUCGGAAAAGGCAAGGAUAUGGGCGGUACCAAUUUCGGUCAGAAGGUGCAAAAG [Aatisri]	12.4	14.6
GAGGACCUAGGAUAGGAUAUAUGAAUAAUUACAUGAGGAUCACCCAUGUCCAUUUAUAUGGGAACAUAGAAGGGUUCUGGUUAUC [SameState2 Malc#37]	36.9	60.6
GAGUACAUAGUACAGGAUAUAUGAAUAGUUACAUGAGGAUCACCCAUGUGCAUUUAUAUGCGCACAUAGAAGGGUGGUAGGUAUC [Mat - Same state - Malcolm Mod - D127]	38.8	29.4
GCAAAACAUGAGGAUCACCCAUGUCAACAAAAUCAAGGAUAUGAGCCGGCAUUGCCGGCAUCAGAAGGUGAACCUU [Gemaisinve]	96.1	129
GGAAAGGAGAGAGAGGAUAUCCAAAGGAAAACAUGAGGAUCACCCAUGUAGAAGGUAGGAAAUUGGGAGAAGGCUCAAGAAAGAG [salish99-ss2-138]	21	57.2
GGAAAUAAAAGAGAGGAUAUCCAAAGGAAAACAUGAGGAUCACCCAUGUAAAAGGAAGGAAAGUGGGAGAAGGCUCAAAAUAAGG [salish99-ss2-008]	29.6	49.9
GGAAGACAUGAGGAUCACCCAUGUGGGAUUAUGGGAGGAUAUACAAAGACGAGAGUCAGAGUAGAAGGCCUAGGAA [salish99-ss1-120(!)]	28.6	79.1
GGAGAACAUGAGGAUCACCCAUGUCGGAGAAGGCGAGGAUAUCGAAGGAGGAAGGAAGGACGAGAAGGCGCGGCAG [salish99-SS1-01]	15.9	21.4
GGCAAACAUGAGGAUCACCCAUGUCAGUGCUAUCAAGGAUAUGGGAUGACGGAAGGUCGGCCAGAAGGUGAGAAAG [Quededma]	233	406

— the supplement of paper PMC9170038
